What was measured:
Test in all cases: anti-FLAG co-IP from lysate of N-FLAG B3GNT2 cells, mass spectrometry
[1] = molecular target: T1, UBTF (human, UniProt P17480-2 1-727, limits assumed)
T1 construct: also called NP_001070151.1 (+3)
T1 sequence (looked up): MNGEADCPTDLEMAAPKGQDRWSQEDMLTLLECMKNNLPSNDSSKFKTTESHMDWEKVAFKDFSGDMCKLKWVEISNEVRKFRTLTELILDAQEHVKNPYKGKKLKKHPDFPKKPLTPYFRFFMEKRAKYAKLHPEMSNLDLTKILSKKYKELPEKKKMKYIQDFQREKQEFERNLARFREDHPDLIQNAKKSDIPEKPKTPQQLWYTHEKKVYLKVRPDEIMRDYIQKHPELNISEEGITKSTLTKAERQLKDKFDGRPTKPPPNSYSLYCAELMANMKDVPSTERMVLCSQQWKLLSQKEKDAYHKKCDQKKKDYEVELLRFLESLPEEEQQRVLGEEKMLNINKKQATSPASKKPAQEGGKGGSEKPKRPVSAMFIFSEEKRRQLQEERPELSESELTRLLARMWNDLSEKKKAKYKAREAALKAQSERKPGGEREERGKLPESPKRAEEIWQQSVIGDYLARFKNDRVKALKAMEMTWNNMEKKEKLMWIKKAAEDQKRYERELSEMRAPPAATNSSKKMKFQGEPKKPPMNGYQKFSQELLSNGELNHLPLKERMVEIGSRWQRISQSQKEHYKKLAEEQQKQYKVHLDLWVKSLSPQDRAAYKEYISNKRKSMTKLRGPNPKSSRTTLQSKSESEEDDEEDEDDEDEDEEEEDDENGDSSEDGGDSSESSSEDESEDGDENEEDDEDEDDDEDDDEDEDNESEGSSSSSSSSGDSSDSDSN
Description: (§1) Cells were plated in 10-cm cell culture dishes and grown to 60-80% confluency. For each condition, two biological replicates were harvested for co-IP. Cells were washed with PBS and 4 mL of lysis buffer (20 mM HEPES, 1% Triton X-100, 150 mM NaCl, 1 mM EDTA, and 10% glycerol) containing protease inhibitor cocktail was added. Cells were scraped and lysate was incubated at 4° C. under rotary agitation for 1 h. Lysate was centrifuged at 14,000×g for 10 min at 4° C. Supernatant was transferred to a new tube and an aliquot was taken as the input. […] For Western blots, 10 μg/mL Chicken Anti-FLAG (Aves labs ET-DY100) and IgY control (R&D Systems AB-101-C) antibodies were biotinylated (Thermo Fisher Scientific 90407) and added to the respective conditions. Lysates with antibodies were incubated at 4° C. under rotary agitation overnight. For each mL of lysate, 50 μL of Pierce Protein A/G Magnetic Beads (Mass spectrometry; Thermo Fisher Scientific 88803) or Pierce Streptavidin Magnetic Beads (Western blot; Thermo Fisher Scientific 88817) was washed twice with lysis buffer. Lysates with antibodies were added to the beads and incubated at 4° C. under rotary agitation for 4 h. Beads were washed with lysis buffer 3 times and resuspended in lysis buffer for storage.
(§2) Magnetic beads were resuspended in 100 mM Tris pH 7.8, reduced, alkylated and digested with trypsin at 37° ° C. overnight. This solution was subjected to solid phase extraction to concentrate the peptides and remove unwanted reagents followed by injection onto a Shimadzu HPLC with fraction collector. Eight fractions were collected and after concentration were injected on a Waters NanoAcquity HPLC equipped with a self-packed Aeris 3 μm C18 analytical column 0.075 mm by 20 cm, (Phenomenex). Peptides were eluted using standard reverse-phase gradients. The effluent from the column was analyzed using a Thermo Orbitrap Elite mass spectrometer (nanospray configuration) operated in a data dependent manner for 54 minutes. The resulting fragmentation spectra were correlated against the known database using Proteome Discover 1.4 (Thermo Fisher Scientific).

[2] = molecular target: T2, ERP44 (human, UniProt Q9BS26 30-406)
T2 construct: also called NP_055866.1
T2 sequence (looked up): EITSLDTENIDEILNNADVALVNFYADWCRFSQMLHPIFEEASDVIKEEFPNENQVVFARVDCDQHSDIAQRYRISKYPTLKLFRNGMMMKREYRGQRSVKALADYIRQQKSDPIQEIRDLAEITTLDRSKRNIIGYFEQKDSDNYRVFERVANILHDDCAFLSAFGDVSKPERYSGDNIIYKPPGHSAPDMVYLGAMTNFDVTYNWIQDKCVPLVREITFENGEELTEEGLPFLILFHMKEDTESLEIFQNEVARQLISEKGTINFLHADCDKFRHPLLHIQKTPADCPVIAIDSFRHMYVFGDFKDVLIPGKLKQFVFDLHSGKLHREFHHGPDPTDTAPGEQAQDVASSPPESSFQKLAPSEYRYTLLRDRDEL
Description: as §1, §2

[3] = molecular target: T3, RCN1 (human, UniProt Q15293 30-331)
T3 construct: also called NP_002892.1
T3 sequence (looked up): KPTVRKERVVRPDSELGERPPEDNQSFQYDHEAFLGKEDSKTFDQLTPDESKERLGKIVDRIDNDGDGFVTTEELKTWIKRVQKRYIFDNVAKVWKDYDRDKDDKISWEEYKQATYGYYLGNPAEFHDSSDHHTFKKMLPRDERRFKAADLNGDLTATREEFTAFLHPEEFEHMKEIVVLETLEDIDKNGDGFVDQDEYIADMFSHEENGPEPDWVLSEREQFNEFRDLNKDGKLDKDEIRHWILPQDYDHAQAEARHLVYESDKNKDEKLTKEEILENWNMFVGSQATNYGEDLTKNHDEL
Description: as §1, §2

[4] = molecular target: T4, H1FX (human, UniProt Q92522 2-213)
T4 construct: also called NP_006017.1
Description: as §1, §2

Measured: co-IP mass spectrometry count

T4 sequence (Q92522 2-213 limits assumed): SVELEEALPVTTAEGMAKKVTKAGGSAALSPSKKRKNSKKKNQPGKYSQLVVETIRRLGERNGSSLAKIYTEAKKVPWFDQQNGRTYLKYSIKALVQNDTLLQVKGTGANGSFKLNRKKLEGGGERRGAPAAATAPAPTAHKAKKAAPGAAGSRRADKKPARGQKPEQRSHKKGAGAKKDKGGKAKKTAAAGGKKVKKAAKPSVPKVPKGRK

B1: N-terminal FLAG tagged B3GNT2 (enzyme, human, UniProt Q9NY97 1-397, looked up)
chain: MSVGRRRIKLLGILMMANVFIYFIMEVSKSSSQEKNGKGEVIIPKEKFWKISTPPEAYWNREQEKLNRQYNPILSMLTNQTGEAGRLSNISHLNYCEPDLRVTSVVTGFNNLPDRFKDFLLYLRCRNYSLLIDQPDKCAKKPFLLLAIKSLTPHFARRQAIRESWGQESNAGNQTVVRVFLLGQTPPEDNHPDLSDMLKFESEKHQDILMWNYRDTFFNLSLKEVLFLRWVSTSCPDTEFVFKGDDDVFVNTHHILNYLNSLSKTKAKDLFIGDVIHNAGPHRDKKLKYYIPEVVYSGLYPPYAGGGGFLYSGHLALRLYHITDQVHLYPIDDVYTGMCLQKLGLVPEKHKGFRTFDIEEKNKNNICSYVDLMLVHSRKPQEMIDIWSQLQSAHLKC
notes: Bait of the co-IP; pulled down from cell lysate with mouse anti-FLAG antibody; also called N-FLAG B3GNT2; N-term FLAG; not shown: N-terminal FLAG tag
0: all assays above

Source: patent US20240261333A1 (published 2024)
